The values below are quoted from earlier work in article PMC11266353, “Synthesis of a highly thermostable insulin by phenylalanine conjugation at B29 Lysine” (Communications Chemistry, 2024).

Details of the data set: method as in Protein J., 2023, 42, 383. The following applies: ref Protein J., 2023, 42, 383.

Consider “Modified insulin: insulin analog reported in Protein J., 2023, 42, 383: tri-acetylated at Gly A1, Phe B1 and Lys B29”, for which the Melting temperature is 72.5 °C.
